± gives the uncertainty stated by the source.
Assay: amyloid nucleation score (Sup35N fusion, yeast selection) (log enrichment); library NNK1; higher = more nucleation; inactive = no reads after selection
Method in brief: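 The nucleation score is a DiMSum log enrichment of output over input reads, centred on the mode score of non-aggregating sequences. Sequences under 100 input reads were excluded, and reads came from Illumina sequencing of plasmid inserts. Psi-negative yeast expressing Sup35N fused to peptides of 20 random codons were induced with 100 μM copper sulfate for 24 hours and grown 7 days at 30°C on medium lacking adenine and uracil. Random libraries had three technical output replicates.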

Substance | amyloid nucleation score
GLYLDFGYSGCYGKKL | 5.67 ± 0.082
GMAVFV | 0.18 ± 1.1
GMEFMIMGNLVITGVIDKCH | -0.262 ± 0.39
GMGGGICSSEKMRCGNVEGV | -0.857 ± 0.34
GMYRVNSWIMSL | inactive
GNALYICRF | 0.572 ± 0.39
GNANVKCGVRAISDNRARRI | 0.003 ± 0.43
GNDNCVRHGGRSSSRCLMKL | inactive
GNFKAMWFYPYRRCWQCT | -0.944 ± 1.1
GNGHWQQVG | 0.001 ± 0.33
GNLFITACFHAFVIWFHNGN | inactive
GNSSNAMKFEIHISSDHVAY | 0.845 ± 0.14
GNTSMILSPA | -0.511 ± 1.1
GNVAWYTSIGCGGMILWADF | -0.124 ± 0.76
GPCNTRSCV | -0.037 ± 0.43
GPPSLYTWTAYCELSRRPEG | 0.515 ± 0.66
GPPSWSELDFHYCVGGWFYP | -0.456 ± 0.56
GPSVPLGVFEKKTAFLKKTL | -0.328 ± 0.79
GQAWKDAVQNYDMLAYMLKG | -0.375 ± 0.54
GQEVHISIVNVLQFEYNRYD | 6.074 ± 0.05
GQFEFCMFAQYGAS | -1.14 ± 2.4
GQIGACVPLIGVAMGYLS | -0.418 ± 1.5

Substance | amyloid nucleation score
GQLLCWVASNYEGFNWVYKI | -0.161 ± 0.53
GQMGPMKREDGVLFVVTREN | -0.255 ± 1.1
GRAYGSVCILRLGC | 0.835 ± 0.63
GRDRSWDIRWLYTLTEPTWH | -1.62 ± 2.7
GREVGYVKLMDRPWPYRPAE | 0.191 ± 0.44
GRFKWCGCNNTLWVGISRN | 1.9 ± 0.15
GRGLADISYVYRDVWICLAI | 0.83 ± 0.43
GRHRMVWGH | 0.345 ± 0.93
GRLHRRDMIGRHVDDSGPMS | inactive
GRLIGDSWLGYTKSGPGRKR | inactive
GRLTLSRGRCCQGSLNTVYP | 0.007 ± 0.75
GRPLCSRPMILHMHNITLRM | 1.05 ± 0.97
GRSAVAFISPPLSLRIAQCP | 0.252 ± 0.28
GRSCFGEHILNTPAISCNIT | -0.288 ± 0.35
GRSSTRRNLIVDQSSVSERC | -0.009 ± 0.53
GRSTNSSDISNHMRNS | 0.961 ± 0.31
GRTFVHSLWACNNSYCSL | 6.85 ± 0.088
GRTLVLDFTHHPPILRVPLR | 0 ± 0.48
GRVFAVSYFVRAGLVNEG | 0.082 ± 0.7
GRVFSFMIGFFVALTERTRA | -0.037 ± 1.7
GRVQGNFLINRVCRWWGVAG | 0.182 ± 0.56
GSADMRLDLQVVGCMTCRFE | 0.386 ± 1.1

Substance | amyloid nucleation score
GSADSFRGYGCFILVKATWY | 0.717 ± 0.46
GSATRTPVITQRICLPVGCR | -0.691 ± 0.56
GSCFLCKI | 0.686 ± 0.53
GSCLFVRGSFVDVGRLFESV | 0.643 ± 0.67
GSDCSKAAFDPPFRSYDNAT | 0.429 ± 0.33
GSDNLDFRCNWVYN | 0.616 ± 0.69
GSHIVLSSFFGMLMLWGVDP | 0.56 ± 0.39
GSHNAR | 0.086 ± 0.97
GSHYP | 0.586 ± 0.56
GSIIMWHYGYYHGCNFYCCH | 6.98 ± 0.07
GSLSVAATSFTVMYRVKLVF | 0.085 ± 0.58
GSMEHCNRNRFFFMGERLLR | -1.1 ± 2.7
GSPMFLRIYLETYLPTYELS | 0.739 ± 0.42
GSTCIRTGSVIVGRL | 0.301 ± 0.28
GSTNERYAKNGTS | 0.32 ± 0.68
GSVCHILVGWVAYMWVF | -1.18 ± 1.2
GSVINGWRRYLFVISILLGL | -0.374 ± 0.32
GSWCSRIK | 0.958 ± 0.35
GSYFGKGSVK | 0.563 ± 0.97
GSYLCLMTFFSLYEQHSCCC | inactive
GTDYIKVSASPRSFMYDSSV | 1.88 ± 0.62
GTFSDAFVLLIFCLYGINYL | 1.54 ± 0.53

Substance | amyloid nucleation score
GTHLYS | 0.78 ± 0.38
GTVVG | 0.041 ± 0.54
GTWLSMLDSSV | -0.32 ± 0.79
GTYLAFYSLSLCRYTKCLER | -0.22 ± 0.47
GVACTARCMCKFNRHPGVCE | -0.274 ± 1.1
GVCALAHRAPIWDQFVGMLV | 0.109 ± 0.28
GVCRDAVGGVTYDK | -0.363 ± 1.5
GVCVKGKRWDAEGVLRNAYT | 1.41 ± 0.46
GVFRLMDRNNI | 0.653 ± 0.61
GVFSSQDTRAIDLCSGVYVM | 0.003 ± 1.2
GVGEIVSNRFAIS | -0.409 ± 1
GVGWISKPNHLDTFITTS | 0.738 ± 0.35
GVLGTGMRNCA | 0.277 ± 0.88
GVLRSSTSTVRGSCAGFHRL | 0.29 ± 0.43
GVMYLKRKLRCYMGINYVFH | 0.074 ± 0.31
GVNLRSNRESSVCDNWRGLR | 0.423 ± 0.42
GVQWKLIFIGQCAVAVAWLA | -2.05 ± 1.8
GVSMVGGHATLLG | -0.206 ± 1.2
GVSSLLGRHRRGVSFEGDSV | -0.65 ± 0.54

Reference: the supplement of paper PMC12042874
